Among the data in publication PMC8488560 are stoichiometry N (β2HA per terminal domain) values, retold here.

This test has as its target clathrin (triskelia purified from pig brain clathrin-coated vesicles) (pig). Kind of test: cryo-EM structure; clathrin cages assembled with a 60-fold molar excess of β2HA; single particle analysis of minicoat cages, signal subtraction, masked 3D classification and localized reconstruction; compared with clathrin-only minicoat cages.

“β2-adaptin 616-951, hinge and appendage of the human β2 subunit of the AP2 complex (β2HA) (from UniProt P63010-2 616-951) (domain or fragment)” showed a stoichiometry N (β2HA per terminal domain) of 0.5.
